The target of assay [1] is T1, HLA-DP4 (human, UniProt P20036 29-222; P04440 30-225, limits assumed).
T1 construct: whole, on cells; also called T2/DP4
As to the kind of experiment: cell-based competitive binding assay on T2/DP4 cells, graded WT1328-348 against reference peptide Oxy271-287.

Assay [2] concerns the target T1, HLA-DP4. The experiment in a line: cell-based competitive binding assay on T2/DP4 cells, reference peptide Oxy271-287.
The target of the next assay is T2, HLA-DP2 (human, UniProt P20036 29-222; P04440 30-225, limits assumed).
T2 construct: whole, on cells; also called T2 cells transduced with DP2
T2 MHC II alpha: not shown
T2 MHC II beta: not shown
As to the kind of experiment: cell-based competitive binding assay on T2/DP2 cells, reference peptide Oxy271-287.

The target in the next assay is T3, WT1330-348.
T3 construct: also called WT1 peptide
T3 peptide: CNKRYFKLSHLQMHSRKHT
The experiment in a line: biolayer interferometry (Octet Red96), biotinylated peptide on streptavidin tips, 5H2 in solution, steady state fit with 1:1 model.

In assay [3] the target is T4, WT1330-348 presented by DP2 on K562 cells (human, UniProt P20036 29-260; P04440 30-258).
T4 construct: whole, on cells; Exogenously pulsed peptide
T4 MHC II alpha: not shown
T4 MHC II beta: not shown
T4 peptide: CNKRYFKLSHLQMHSRKHT
As to the kind of experiment: flow cytometry on peptide-pulsed K562 transfectants, PE anti-mouse secondary.

Assay [4] concerns the target T5, WT1330-348 presented by DP4 on K562 cells (human, UniProt P20036 29-260; P04440 30-258).
T5 construct: whole, on cells; Exogenously pulsed peptide
The assay is described as above.

In assay [5] the target is T6, WT1330-348 presented by DP5 on K562 cells (human, UniProt P20036 29-260; P04440 30-258).
T6 construct: whole, on cells; Exogenously pulsed peptide
T6 MHC II alpha: not shown
T6 MHC II beta: not shown
T6 peptide: CNKRYFKLSHLQMHSRKHT
Described as above.

The source of these data is patent publication US20260042827A1 (UNIVERSITY HEALTH NETWORK, published 2026).

T1 sequence (P20036 29-222 limits assumed, chain 1 of 4, other chains not shown): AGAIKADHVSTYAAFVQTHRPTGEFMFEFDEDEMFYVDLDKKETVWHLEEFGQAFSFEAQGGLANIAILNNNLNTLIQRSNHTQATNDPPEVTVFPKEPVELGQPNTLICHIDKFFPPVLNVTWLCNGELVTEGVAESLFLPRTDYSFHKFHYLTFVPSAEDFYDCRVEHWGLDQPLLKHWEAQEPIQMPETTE
T1 sequence (P04440 30-225 limits assumed, chain 2 of 4, other chains not shown): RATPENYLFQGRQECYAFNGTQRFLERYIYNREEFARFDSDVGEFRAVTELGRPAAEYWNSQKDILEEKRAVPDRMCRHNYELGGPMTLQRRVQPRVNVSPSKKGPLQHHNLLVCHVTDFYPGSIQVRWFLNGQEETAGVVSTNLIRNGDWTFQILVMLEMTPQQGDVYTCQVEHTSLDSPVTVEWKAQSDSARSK

In the case of PGCNKRYFKLSHLQMHSRKHT (also called 21-mer peptide) [WT1328-348], in the assay with HLA-DP4 [1], the binding result is reported as “binds”.

B1: WT1235-243 (peptide)
peptide: CMTWNQMNL
notes: Negative control peptide; also called HLA-A2 restricted peptide
Regarding B1, the binding result with HLA-DP4 [2] and with HLA-DP2 was “no binding (tested: any tested concentration)” throughout.

B2: WT1-specific mAb, 5H2 (antibody, V domains shown)
VH: EVQLQQSGAELVRPGALVKLSCKASGFNIKDYYMHWVKQRPEQGLEWIGWIDPENGNTIYDPKFQGKASITADTSSNTAYLQLSSLTSGDTAVYYCTRDGYYMVFAYWGQGTLVTVSA
VL: DIQMTQSPSSLSASLGGKVTITCKASQDINKCIAWYKHKPGKGPRLLIHYTSILQPGIPSRFSGSGSGRDYSFSISNLEPEDIATYYCLQYDNLYTFGGGTKLEIK
notes: also called clone 5H2; 5H2 mAb
In the assay with WT1330-348, B2 gave an equilibrium dissociation constant (Kd) of about 50 nM. Besides, the binding result in assay [3], in assay [4] and in assay [5] was “binds” in each case.
